Patent publication US20140286957A1 (Teva, published 2014)
Positions count from the first letter of the chain named. In names and notes the source's numbering stands. Like-named read-outs stand apart in the source and are kept apart here. Each block holds one binder with its values, some of them ahead of it.

Legend:
[1] = molecular target: T1, Human CD1d/β2M (human, UniProt P15813 20-301; P61769 21-119); assay: SPR, transfection supernatant
T1 construct: also called hCD1d; recombinant human CD1d

[2] = molecular target: T2, Human CD1d on cells (human, UniProt P15813 20-335); assay: cell-based or functional assay
T2 sequence (looked up): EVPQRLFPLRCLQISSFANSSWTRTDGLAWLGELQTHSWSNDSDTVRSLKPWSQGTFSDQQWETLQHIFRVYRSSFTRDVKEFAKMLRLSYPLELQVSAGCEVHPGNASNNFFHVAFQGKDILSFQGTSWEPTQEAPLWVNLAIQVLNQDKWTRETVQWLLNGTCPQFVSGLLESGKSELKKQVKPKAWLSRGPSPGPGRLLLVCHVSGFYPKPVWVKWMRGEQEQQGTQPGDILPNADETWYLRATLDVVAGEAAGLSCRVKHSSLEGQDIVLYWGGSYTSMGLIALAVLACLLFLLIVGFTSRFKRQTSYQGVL

[3] = molecular target: T2, Human CD1d on cells; assay: cell-based or functional assay; remark: listed apart in the source
[4] = molecular target: T1, Human CD1d/β2M; assay: SPR
[5] = molecular target: T2, Human CD1d on cells; assay: cell-based or functional assay; remark: listed apart in the source
[6] = molecular target: T2, Human CD1d on cells; assay: cell-based or functional assay; remark: listed apart in the source
[7] = molecular target: T2, Human CD1d on cells; assay: cell-based or functional assay; remark: listed apart in the source
[8] = molecular target: T2, Human CD1d on cells; assay: cell-based or functional assay; remark: listed apart in the source
[9] = molecular target: T2, Human CD1d on cells; assay: cell-based or functional assay; remark: listed apart in the source
[10] = molecular target: T2, Human CD1d on cells; assay: cell-based or functional assay; remark: listed apart in the source
[11] = molecular target: T2, Human CD1d on cells; assay: cell-based or functional assay; remark: listed apart in the source

B1: 401.11.24 (antibody, IgG4, V domains shown)
VH: QVQLVGSGGGLVKPGRSLRLSCAASGFTFDDYAMHWVRQAPGKGLEWVATIIWNSAIIGYADSVKGRFIVSRDNAKNSLYLQMNSLRAEDTALYYCAKDMCSSSGCPDGYFDSWGQGTLVTVSS
VL: DIQMTQSPSSVSASVGDRVTITCRASQHISSWLAWYQQKPGKAPKLLIYAASSLQSGVSSRFSGSGSGTDFTLTISSLQPEDFATYYCQQANRFPLTFGGGTKLEIKR
notes: IgG4 (S228P)
- Kd [1]: 0.644 nM
- NKT IFN-γ EC50 (THP-1) [2]: 4.26 ng/mL
- NKT IFN-γ EC50 (moDC) [2]: 0.36 ng/mL

B2: 401.11.19 (antibody, V domains shown)
VH: B1 VH with T91M
VL: DIQMTQSPSSVSASVGDRVTITCRASQHISSWLAWYQQKPGKAPKLLIYAASSLQSGVSSRFSGSGSGTDFTLTISSLQPEDFATYYCQQANRFPLTFGGGTKLEIK
- Kd [1]: 0.667 nM

B4: 401.11.18 (antibody, V domains shown)
VH: B1 VH
VL: B2 VL with K45N
- Kd [1]: 9.97 nM

B5: 401.11.28 (antibody, IgG4, V domains shown)
VH: B1 VH
VL: B1 VL with K45N, S59P
- NKT IFN-γ EC50 (THP-1) [2]: 1.42 ng/mL
- NKT IFN-γ EC50 (moDC) [2]: 0.294 ng/mL

B6: 401.11.21 (antibody, V domains shown)
VH: B1 VH with Q1E, G6E, T91M
VL: B2 VL
- Kd [1]: 0.951 nM

B12: 401.11.22 (antibody, V domains shown)
VH: B1 VH with Q1E, G6E, K13Q, T91M
VL: B2 VL
- Kd [1]: 0.754 nM

B18: 401.11.15 (antibody, V domains shown)
VH: B1 VH with Q1E, G6E, T91M
VL: B2 VL with K45N
- Kd [1]: 0.507 nM

B19: 401.11.26 (antibody, IgG4, V domains shown)
VH: B1 VH with Q1E, G6E, K13Q, T91M
VL: B1 VL with K45N, S59P
notes: IgG4 (S228P)
- Kd [1]: 0.855 nM
- NKT IFN-γ EC50 (THP-1) [2]: 3.25 ng/mL
- NKT IFN-γ EC50 (moDC) [2]: 1.3 ng/mL

B20: 401.11.20 (antibody, V domains shown)
VH: B1 VH with T91M
VL: B2 VL with K45N, S59P
- Kd [1]: 0.977 nM

Further lines, results first:

- NKT IL-4 EC50 (moDC) [3]: 27.6 ng/mL
- NKT IL-13 EC50 (moDC) [3]: 74.7 ng/mL
- Kd [4]: 2.42 nM
B3: 401.11.155 (antibody, IgG4, V domains shown)
VH: B1 VH with Q1E, G6E, K13Q, T91M
VL: B1 VL with S59P
notes: IgG4 (S228P)

- binding result [1]: no binding
B7: 401.11.16 (antibody, V domains shown)
VH: B1 VH with Q1E, G6E, K13Q, T91M
VL: B2 VL with K45N

- binding result [1]: no binding
B8: 401.11.27 (antibody, V domains shown)
VH: B1 VH with I69T, V70I, T91M
VL: B2 VL with K45N, S59P

- NKT IL-4 EC50 (moDC) [3]: 5.24 ng/mL
- NKT IL-13 EC50 (moDC) [3]: 8.38 ng/mL
- Kd [4]: 0.255 nM
B9: 401.11.161 (antibody, IgG4, V domains shown)
VH: B1 VH with Q1E, G6E, K13Q, T91M, S104G
VL: B1 VL with S59P
notes: IgG4 (S228P)

- NKT IL-4 EC50 (moDC) [3]: 1.95 ng/mL
- NKT IL-13 EC50 (moDC) [3]: 5.22 ng/mL
- fold improvement against 401.11 (IFN-γ, moDC) [5]: ~5.1 fold
- NKT IFN-γ EC50 (THP-1) [6]: 5.81 ng/mL
- NKT IL-4 EC50 (THP-1) [6]: 1.99 ng/mL
- NKT IL-5 EC50 (THP-1) [6]: 4.45 ng/mL
- NKT IL-13 EC50 (THP-1) [6]: 6.91 ng/mL
- NKT TNF EC50 (THP-1) [6]: 3.85 ng/mL
- NKT IFN-γ EC50 (moDC) [7]: 7.76 ng/mL
- NKT IL-4 EC50 (moDC) [7]: 2.72 ng/mL
- NKT IL-5 EC50 (moDC) [7]: 5.86 ng/mL
- NKT IL-13 EC50 (moDC) [7]: 9.53 ng/mL
- NKT TNF EC50 (moDC) [7]: 4.51 ng/mL
- Kd [4]: 0.223 nM
B10: 401.11.156 (antibody, IgG4, V domains shown)
VH: B1 VH with S104G
VL: B1 VL
notes: IgG4 (S228P)

- NKT IL-4 EC50 (moDC) [3]: 10.2 ng/mL
- NKT IL-13 EC50 (moDC) [3]: 78.5 ng/mL
- Kd [4]: 2.83 nM
B11: 401.11.152 (antibody, IgG4, V domains shown)
VH: B1 VH with Q1E, G6E, K13Q
VL: B1 VL
notes: IgG4 (S228P)

- NKT IFN-γ EC50 (THP-1) [8]: 1.29 ng/mL
- NKT IFN-γ EC50 (moDC) [8]: 0.359 ng/mL
- NKT IL-4 EC50 (THP-1) [8]: 0.509 ng/mL
- NKT IL-4 EC50 (moDC) [8]: 1.74 ng/mL
B13: 401.11.86 (antibody, IgG4, V domains shown)
VH: B1 VH with T91M, S104G
VL: B1 VL with K45N

- NKT IL-4 EC50 (moDC) [3]: 0.799 ng/mL
- NKT IL-13 EC50 (moDC) [3]: 3.87 ng/mL
- NKT IFN-γ EC50 (THP-1) [6]: 5.45 ng/mL
- NKT IL-4 EC50 (THP-1) [6]: 1.81 ng/mL
- NKT IL-5 EC50 (THP-1) [6]: 4.48 ng/mL
- NKT IL-13 EC50 (THP-1) [6]: 6.98 ng/mL
- NKT TNF EC50 (THP-1) [6]: 3.54 ng/mL
- NKT IFN-γ EC50 (moDC) [7]: 9.11 ng/mL
- NKT IL-4 EC50 (moDC) [7]: 3.44 ng/mL
- NKT IL-5 EC50 (moDC) [7]: 8.49 ng/mL
- NKT IL-13 EC50 (moDC) [7]: 20.6 ng/mL
- NKT TNF EC50 (moDC) [7]: 5.59 ng/mL
- Kd [4]: 0.173 nM
B14: 401.11.157 (antibody, IgG4, V domains shown)
VH: B1 VH with S104G
VL: B1 VL with K45N, S59P
notes: IgG4 (S228P)

- NKT IL-4 EC50 (moDC) [3]: 4.16 ng/mL
- NKT IL-13 EC50 (moDC) [3]: 17.7 ng/mL
- Kd [4]: 1.77 nM
B15: 401.11.154 (antibody, IgG4, V domains shown)
VH: B1 VH
VL: B1 VL with S59P
notes: IgG4 (S228P)

- NKT IFN-γ EC50 (moDC) [9]: 15.1 ng/mL
- NKT IL-4 EC50 (moDC) [9]: 0.969 ng/mL
- NKT IL-5 EC50 (moDC) [9]: 1.38 ng/mL
- NKT IL-13 EC50 (moDC) [9]: 1.76 ng/mL
- Kd [4]: 0.468 nM
B16: 401.11.178 (antibody, V domains shown)
VH: B1 VH with M100L, S104G
VL: B2 VL with S59P

- NKT IL-4 EC50 (moDC) [3]: 1.56 ng/mL
- NKT IL-13 EC50 (moDC) [3]: 6.52 ng/mL
- Kd [4]: 0.109 nM
B17: 401.11.160 (antibody, IgG4, V domains shown)
VH: B1 VH with Q1E, G6E, K13Q, T91M, S104G
VL: B1 VL with K45N, S59P
notes: IgG4 (S228P)

- NKT IFN-γ EC50 (moDC) [10]: 0.658 ng/mL
- NKT IL-13 EC50 (moDC) [10]: 1.52 ng/mL
- NKT IFN-γ EC50 (moDC) [11]: 277 ng/mL
- NKT IL-4 EC50 (moDC) [11]: 105 ng/mL
B21: 402.8.53 (antibody, IgG4, V domains shown)
VH: QVQLQESGPGLVKPSETLSLTCAVYGGSFSGYYWSWIRQPPGKGLEWIGEINHAGSTNYNPSLKSRVTISVDTSKNQFSLKLSSVTAADTAVYYCARGEIYDFWKSYLDVWGKGTTVTVSS
VL: QTVVTQEPSLTVSPGGTVTLTCASSSGAVSSGNFPNWFQQKPGQAPRALIFSASNKHSWTPARFSGSLLGGKAVLTLSGVQPEDEAEYYCLLYFGDTQLGVFGGGTKVTVLG
